Results on three substances are retold here after publication PMC2814163.

Where two headings read alike, the source gives them in different places.

The Kd is the equilibrium constant for the complex coming apart.

For assay [1], the target named is Dom1-3His (extracytoplasmic domains 1-3 of the bovine CI-MPR, residues 1-432, C-terminal His6) (bovine) (UniProt P08169). Description: SPR.
For assay [2], the target named is Dom1-2His (domains 1-2 of the bovine CI-MPR, residues 1-281, C-terminal His6) (bovine) (UniProt P08169). Nature of the assay: SPR.
Sequence of Dom1-2His (domains 1-2 of the bovine CI-MPR, residues 1-281, C-terminal His6) (bovine) (P08169 45-325): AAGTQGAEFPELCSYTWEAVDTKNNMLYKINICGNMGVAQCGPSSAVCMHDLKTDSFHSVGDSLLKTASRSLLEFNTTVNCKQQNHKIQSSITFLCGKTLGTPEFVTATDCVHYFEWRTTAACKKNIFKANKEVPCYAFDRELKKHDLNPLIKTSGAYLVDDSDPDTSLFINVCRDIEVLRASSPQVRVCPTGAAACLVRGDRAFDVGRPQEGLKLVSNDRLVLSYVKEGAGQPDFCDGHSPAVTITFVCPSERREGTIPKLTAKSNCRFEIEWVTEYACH
In assay [3] the target is Dom1-3His (extracytoplasmic domains 1-3 of the bovine CI-MPR, residues 1-432, C-terminal His6) (bovine) (UniProt P08169). Nature of the assay: SPR. The source holds these as a separate data set.
In another assay the target is Dom1-3HisK125A (bovine) (UniProt P08169). Nature of the assay: SPR.
Sequence of Dom1-3HisK125A (bovine) (P08169 45-476 K169A): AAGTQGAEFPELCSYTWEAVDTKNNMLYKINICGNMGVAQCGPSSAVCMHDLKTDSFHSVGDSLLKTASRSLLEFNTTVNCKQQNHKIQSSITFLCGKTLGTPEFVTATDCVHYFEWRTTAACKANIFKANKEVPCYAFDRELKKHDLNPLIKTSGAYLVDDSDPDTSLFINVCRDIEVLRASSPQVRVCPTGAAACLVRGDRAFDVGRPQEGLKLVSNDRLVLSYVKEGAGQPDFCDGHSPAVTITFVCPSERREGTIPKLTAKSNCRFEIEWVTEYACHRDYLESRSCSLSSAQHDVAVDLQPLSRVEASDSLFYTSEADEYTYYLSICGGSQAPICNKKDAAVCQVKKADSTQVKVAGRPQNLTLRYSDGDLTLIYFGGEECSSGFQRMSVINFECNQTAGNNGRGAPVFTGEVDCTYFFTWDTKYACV
For a further assay, the target named is Dom1-3HisK132A (bovine) (UniProt P08169). Nature of the assay: SPR. For orientation: Surface plasmon resonance follows binding to a sensor surface in real time, without labels.
Sequence of Dom1-3HisK132A (bovine) (P08169 45-476 K176A): as the sequence (P08169 45-476 K169A) above, with A125K, K132A counted along it
Another assay concerns the target Dom1-3HisK215A (bovine) (UniProt P08169). Description: SPR.
For the next assay, the target named is Dom1-3HisK23A (bovine) (UniProt P08169). Nature of the assay: SPR.
Sequence of Dom1-3HisK23A (bovine) (P08169 45-476 K67A): as the sequence (P08169 45-476 K169A) above, with K23A, A125K counted along it
Another assay addresses Dom1-3HisK53A (bovine) (UniProt P08169). Description: SPR.
The target in another assay is Dom1-3HisK82A (bovine) (UniProt P08169). Nature of the assay: SPR.
Sequence of Dom1-3HisK82A (bovine) (P08169 45-476 K126A): as the sequence (P08169 45-476 K169A) above, with K82A, A125K counted along it
The target of a further assay is Dom1-3HisK98A (bovine) (UniProt P08169). Nature of the assay: SPR.
Sequence of Dom1-3HisK98A (bovine) (P08169 45-476 K142A): as the sequence (P08169 45-476 K169A) above, with K98A, A125K counted along it
The target in a further assay is Dom1-3HisR118A (bovine) (UniProt P08169). Description: SPR.
Sequence of Dom1-3HisR118A (bovine) (P08169 45-476 R162A): as the sequence (P08169 45-476 K169A) above, with R118A, A125K counted along it
Assay [4] has as its target Dom1His (domain 1 of the bovine CI-MPR, residues 1-123, C-terminal His6) (bovine) (UniProt P08169). Description: SPR.
The target of assay [5] is soluble form of the cation-independent mannose 6-phosphate receptor isolated from fetal bovine serum (bovine) (UniProt P08169). Description: SPR.
Sequence of soluble form of the cation-independent mannose 6-phosphate receptor isolated from fetal bovine serum (bovine) (P08169 45-2313): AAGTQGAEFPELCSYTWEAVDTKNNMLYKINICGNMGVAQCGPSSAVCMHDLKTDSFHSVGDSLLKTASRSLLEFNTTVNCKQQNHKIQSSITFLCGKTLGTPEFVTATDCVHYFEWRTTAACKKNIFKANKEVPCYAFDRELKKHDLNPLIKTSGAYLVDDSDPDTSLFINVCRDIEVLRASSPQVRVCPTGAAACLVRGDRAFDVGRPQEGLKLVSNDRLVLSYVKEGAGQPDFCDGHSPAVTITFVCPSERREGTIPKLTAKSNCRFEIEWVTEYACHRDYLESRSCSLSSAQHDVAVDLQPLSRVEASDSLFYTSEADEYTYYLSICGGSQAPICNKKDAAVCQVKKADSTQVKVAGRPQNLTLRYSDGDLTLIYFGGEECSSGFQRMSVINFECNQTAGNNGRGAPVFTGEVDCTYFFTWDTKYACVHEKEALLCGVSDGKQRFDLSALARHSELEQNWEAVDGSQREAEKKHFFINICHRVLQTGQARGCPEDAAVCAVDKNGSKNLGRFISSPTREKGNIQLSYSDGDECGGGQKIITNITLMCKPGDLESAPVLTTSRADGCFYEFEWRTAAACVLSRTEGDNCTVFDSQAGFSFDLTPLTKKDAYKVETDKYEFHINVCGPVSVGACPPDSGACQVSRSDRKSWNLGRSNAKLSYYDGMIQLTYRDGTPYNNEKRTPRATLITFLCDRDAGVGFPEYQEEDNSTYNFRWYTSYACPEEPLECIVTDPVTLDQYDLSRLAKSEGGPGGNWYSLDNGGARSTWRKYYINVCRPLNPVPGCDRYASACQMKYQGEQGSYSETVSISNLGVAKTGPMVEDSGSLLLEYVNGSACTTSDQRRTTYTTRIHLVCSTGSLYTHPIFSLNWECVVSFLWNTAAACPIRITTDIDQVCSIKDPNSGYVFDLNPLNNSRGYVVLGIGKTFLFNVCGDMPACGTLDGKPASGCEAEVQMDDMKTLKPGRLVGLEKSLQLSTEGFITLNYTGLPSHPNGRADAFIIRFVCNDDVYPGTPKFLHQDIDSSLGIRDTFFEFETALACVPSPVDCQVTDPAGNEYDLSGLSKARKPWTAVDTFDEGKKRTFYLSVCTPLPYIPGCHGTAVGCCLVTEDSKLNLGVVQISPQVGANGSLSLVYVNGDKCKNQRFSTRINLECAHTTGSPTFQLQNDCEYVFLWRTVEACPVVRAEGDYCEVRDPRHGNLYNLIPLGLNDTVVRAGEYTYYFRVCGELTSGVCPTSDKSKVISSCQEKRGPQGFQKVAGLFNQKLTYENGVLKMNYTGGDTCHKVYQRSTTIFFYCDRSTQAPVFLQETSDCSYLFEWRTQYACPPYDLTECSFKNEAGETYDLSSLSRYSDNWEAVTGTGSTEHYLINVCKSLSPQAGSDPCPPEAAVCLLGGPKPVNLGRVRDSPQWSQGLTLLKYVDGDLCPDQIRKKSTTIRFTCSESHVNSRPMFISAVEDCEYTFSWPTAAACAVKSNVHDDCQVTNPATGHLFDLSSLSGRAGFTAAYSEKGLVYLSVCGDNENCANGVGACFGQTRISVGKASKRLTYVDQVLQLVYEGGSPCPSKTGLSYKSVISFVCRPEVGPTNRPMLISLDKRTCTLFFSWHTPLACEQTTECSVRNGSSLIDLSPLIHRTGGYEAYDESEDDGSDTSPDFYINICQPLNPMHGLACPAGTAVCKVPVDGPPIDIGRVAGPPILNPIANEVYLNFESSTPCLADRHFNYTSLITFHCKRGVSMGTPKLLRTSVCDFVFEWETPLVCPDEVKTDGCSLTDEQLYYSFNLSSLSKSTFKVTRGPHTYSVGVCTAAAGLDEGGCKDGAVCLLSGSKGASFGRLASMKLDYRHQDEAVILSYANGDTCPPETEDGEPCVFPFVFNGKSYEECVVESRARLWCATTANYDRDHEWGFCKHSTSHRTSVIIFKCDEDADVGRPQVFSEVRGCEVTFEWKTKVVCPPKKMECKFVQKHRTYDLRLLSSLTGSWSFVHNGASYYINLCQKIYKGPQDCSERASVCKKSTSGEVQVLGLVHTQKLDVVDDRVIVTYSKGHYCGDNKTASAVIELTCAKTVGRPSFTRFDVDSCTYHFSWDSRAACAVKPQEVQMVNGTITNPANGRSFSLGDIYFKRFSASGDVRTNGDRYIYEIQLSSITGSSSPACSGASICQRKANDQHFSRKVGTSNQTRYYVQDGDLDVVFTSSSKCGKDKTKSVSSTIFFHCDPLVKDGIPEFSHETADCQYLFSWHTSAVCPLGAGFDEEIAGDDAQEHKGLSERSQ
Assay [6] concerns the target plasminogen (Homo sapiens) (UniProt P00747). The following applies: cited from earlier work.

Sequence of Dom1-3His (extracytoplasmic domains 1-3 of the bovine CI-MPR, residues 1-432, C-terminal His6) (bovine) (P08169 45-476): as the sequence (P08169 45-476 K169A) above, with A125K counted along it
Sequence of Dom1His (domain 1 of the bovine CI-MPR, residues 1-123, C-terminal His6) (bovine) (P08169 45-167): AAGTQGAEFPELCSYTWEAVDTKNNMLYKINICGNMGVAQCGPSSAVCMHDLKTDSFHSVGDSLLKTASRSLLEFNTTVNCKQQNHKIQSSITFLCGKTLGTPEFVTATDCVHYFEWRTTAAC
Sequence of Dom1-3HisK53A (bovine) (P08169 45-476 K97A): as the sequence (P08169 45-476 K169A) above, with K53A, A125K counted along it
Sequence of Dom1-3HisK215A (bovine) (P08169 45-476 K259A): as the sequence (P08169 45-476 K169A) above, with A125K, K215A counted along it
Sequence of plasminogen (Homo sapiens) (P00747 20-810): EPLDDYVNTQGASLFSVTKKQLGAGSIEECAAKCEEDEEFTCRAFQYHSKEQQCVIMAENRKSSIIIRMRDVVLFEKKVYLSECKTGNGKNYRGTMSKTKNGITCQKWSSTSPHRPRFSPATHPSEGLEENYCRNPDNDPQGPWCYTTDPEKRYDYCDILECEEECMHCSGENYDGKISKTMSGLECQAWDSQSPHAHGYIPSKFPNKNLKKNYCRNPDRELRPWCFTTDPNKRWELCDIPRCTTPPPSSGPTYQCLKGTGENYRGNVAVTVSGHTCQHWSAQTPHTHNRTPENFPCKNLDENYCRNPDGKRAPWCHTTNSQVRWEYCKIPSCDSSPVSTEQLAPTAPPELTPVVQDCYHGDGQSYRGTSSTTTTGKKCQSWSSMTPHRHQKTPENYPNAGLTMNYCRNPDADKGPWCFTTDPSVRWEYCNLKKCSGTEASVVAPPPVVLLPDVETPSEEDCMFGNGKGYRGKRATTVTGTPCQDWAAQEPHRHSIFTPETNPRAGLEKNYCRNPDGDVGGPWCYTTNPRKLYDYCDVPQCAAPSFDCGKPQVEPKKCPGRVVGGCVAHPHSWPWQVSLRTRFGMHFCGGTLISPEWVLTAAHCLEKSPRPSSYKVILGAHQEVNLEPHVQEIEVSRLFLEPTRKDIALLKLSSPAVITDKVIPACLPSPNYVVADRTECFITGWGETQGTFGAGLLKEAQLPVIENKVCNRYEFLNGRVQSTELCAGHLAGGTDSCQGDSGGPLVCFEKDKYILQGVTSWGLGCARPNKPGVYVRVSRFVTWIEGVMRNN

On to “bovine Glu-plasminogen (natural protein)”, for which the Kd was 131 nM in assay [1]; 271 nM in [3]; above 2000 nM with Dom1-3HisK125A (bovine); 64 nM with Dom1-3HisK132A (bovine); 10 nM with Dom1-3HisK215A (bovine); 33 nM with Dom1-3HisK23A (bovine). Besides, the Kd in the assay with Dom1-3HisK53A (bovine) is above 2000 nM; in the assay with Dom1-3HisK82A (bovine), 69 nM; with Dom1-3HisK98A (bovine), 24 nM; in the assay with Dom1-3HisR118A (bovine), 21 nM. Further, the Kd2 (two-site model) was 170 nM in assay [2], above 2 µM in [4] and 290 nM in [5]. Moreover, the Kd1 (two-site model) in assay [4] was above 2 µM.

With “human angiostatin K1-4 (domain or fragment)”, in assay [3], the Kd is 170 nM.

For the substance CI-MPR (from UniProt P11717), the Kd in assay [6] was 270 nM.
